From paper PMC4773887

Key:
Test in all cases: EMSA
Settings in all cases: EMSA: 10 fmol DNA, 300 uM ddGTP, 3 mM dCTP; 6% native PAGE in 0.5x TBE, 35 min, 180 V; binding buffer, salt, pH and temperature not stated (ref 59)
[1] = test system: HsPOLγA D274A (exo-);HsPOLγB WT (Homo sapiens;Homo sapiens)
[2] = test system: HsPOLγA Q1102A (pol-);HsPOLγB WT (Homo sapiens;Homo sapiens)
[3] = test system: HsPOLγA H1134A (pol-);HsPOLγB WT (Homo sapiens;Homo sapiens)
[4] = test system: HsPOLγA WT;HsPOLγB WT (Homo sapiens;Homo sapiens)

EMSA primer-template
Kd [1]: 2.8 nM | Kd [2]: 3.8 nM | Kd [3]: 3.5 nM | Kd [4]: 5.5 nM
